This is an account of results in patent publication US20240034757A1 (OXFORD UNIVERSITY INNOVATION, published 2024).

Where two headings read alike, the source gives them in different places.

Some targets named below: CCL11_HUMAN (human, UniProt P51671 24-97); CCL13_HUMAN (human, UniProt Q99616 24-98); CCL7_HUMAN (human, UniProt P80098 24-99); CCL2_HUMAN (human, UniProt P13500 24-99).
Common to all, as to assay: BLI
A general note: Biolayer interferometry detects binding as a change in optical thickness at a sensor tip.

In a further experiment the target is T1, CCL1_HUMAN (human, UniProt P22362 24-96).
T1 sequence: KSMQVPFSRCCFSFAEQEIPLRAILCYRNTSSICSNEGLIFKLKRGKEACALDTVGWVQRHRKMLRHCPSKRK

The next experiment has as its target T2, CCL17_HUMAN (human, UniProt Q92583 24-94).
T2 sequence: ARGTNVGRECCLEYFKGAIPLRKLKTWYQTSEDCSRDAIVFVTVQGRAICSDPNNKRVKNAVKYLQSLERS

Another experiment deals with T3, CCL21_HUMAN (human, UniProt O00585 24-134).
T3 sequence: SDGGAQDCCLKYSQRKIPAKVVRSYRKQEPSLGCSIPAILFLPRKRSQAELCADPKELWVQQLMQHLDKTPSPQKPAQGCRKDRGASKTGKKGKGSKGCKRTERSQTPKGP

The target of the next experiment is T4, CCL4_HUMAN (human, UniProt P13236 24-92).
T4 sequence: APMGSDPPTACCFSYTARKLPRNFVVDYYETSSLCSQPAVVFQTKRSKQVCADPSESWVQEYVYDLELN

The target of another experiment is T5, CCL22_HUMAN (human, UniProt O00626 25-93).
T5 sequence: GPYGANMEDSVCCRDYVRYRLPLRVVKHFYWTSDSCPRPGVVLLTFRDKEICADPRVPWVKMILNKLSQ

The target in a further experiment is T6, CCL16_HUMAN (human, UniProt O15467 24-120).
T6 sequence: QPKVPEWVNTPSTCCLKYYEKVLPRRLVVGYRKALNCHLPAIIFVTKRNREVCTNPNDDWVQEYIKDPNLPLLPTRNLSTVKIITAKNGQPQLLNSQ

For experiment [1], the target named is T7, CCL27_HUMAN (human, UniProt Q9Y4X3 25-112).
T7 sequence: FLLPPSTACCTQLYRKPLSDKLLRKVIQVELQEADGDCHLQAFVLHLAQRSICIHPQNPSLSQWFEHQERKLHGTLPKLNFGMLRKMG

The next experiment addresses T8, CCL5_HUMAN (human, UniProt P13501 24-91).
T8 sequence: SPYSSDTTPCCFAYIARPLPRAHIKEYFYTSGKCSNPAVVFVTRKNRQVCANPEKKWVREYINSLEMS

In a further experiment the target is T9, CCL19_HUMAN (human, UniProt Q99731 22-98).
T9 sequence: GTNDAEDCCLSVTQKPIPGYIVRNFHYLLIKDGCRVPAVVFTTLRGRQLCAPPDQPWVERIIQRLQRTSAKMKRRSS

The next experiment deals with T10, CCL24_HUMAN (human, UniProt O00175 27-104).
T10 sequence: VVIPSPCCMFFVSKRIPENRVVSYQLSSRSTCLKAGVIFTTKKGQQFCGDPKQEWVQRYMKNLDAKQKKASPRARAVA

A further experiment has as its target T11, CCL23_HUMAN (human, UniProt P55773 22-120).
T11 sequence: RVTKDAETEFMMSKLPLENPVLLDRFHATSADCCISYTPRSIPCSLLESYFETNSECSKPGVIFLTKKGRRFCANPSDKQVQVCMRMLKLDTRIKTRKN

In a further experiment the target is T12, CCL15_HUMAN (human, UniProt Q16663 22-113).
T12 sequence: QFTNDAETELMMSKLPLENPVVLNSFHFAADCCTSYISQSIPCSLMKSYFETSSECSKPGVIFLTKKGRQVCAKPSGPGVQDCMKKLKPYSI

For a further experiment, the target named is T13, CCL8_HUMAN (human, UniProt P80075 24-99).
T13 sequence (looked up): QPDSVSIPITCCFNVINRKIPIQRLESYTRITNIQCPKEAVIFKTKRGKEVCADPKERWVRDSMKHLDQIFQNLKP

The next experiment deals with T14, CCL14_HUMAN (human, UniProt Q16627 22-93).
T14 sequence: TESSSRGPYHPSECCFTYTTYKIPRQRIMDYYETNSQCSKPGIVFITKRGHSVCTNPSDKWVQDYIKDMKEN

The target in a further experiment is T15, CCL3_HUMAN (human, UniProt P10147 24-92).
T15 sequence: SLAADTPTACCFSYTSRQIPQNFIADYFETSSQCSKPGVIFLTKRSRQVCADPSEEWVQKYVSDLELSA

The next experiment addresses T16, CCL28_HUMAN (human, UniProt Q9NRJ3 23-127).
T16 sequence: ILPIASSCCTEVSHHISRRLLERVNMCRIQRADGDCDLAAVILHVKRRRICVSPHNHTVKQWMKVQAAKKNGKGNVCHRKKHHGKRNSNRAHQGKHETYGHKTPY

The target in experiment [2] is T7, CCL27_HUMAN. This is another data set of the same source.

CCL13_HUMAN, sequence (Q99616 24-98 limits assumed): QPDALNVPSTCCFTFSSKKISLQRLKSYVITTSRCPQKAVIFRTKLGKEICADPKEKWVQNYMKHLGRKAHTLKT
CCL7_HUMAN, sequence (P80098 24-99 limits assumed): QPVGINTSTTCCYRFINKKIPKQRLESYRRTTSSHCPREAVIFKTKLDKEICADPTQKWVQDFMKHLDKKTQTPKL
CCL11_HUMAN, sequence (P51671 24-97 limits assumed): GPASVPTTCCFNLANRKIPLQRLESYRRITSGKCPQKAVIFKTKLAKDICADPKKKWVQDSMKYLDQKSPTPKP
CCL2_HUMAN, sequence (P13500 24-99 limits assumed): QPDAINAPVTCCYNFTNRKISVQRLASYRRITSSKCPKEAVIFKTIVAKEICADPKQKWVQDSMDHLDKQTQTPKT

B1: P991:G4S:P1156 (designed binder)
chain: ENGEGTTQPDYDNSTDYYNYEDFKCTCPAPHLNNTNGTVMKPIGCYYTCNVTRCTAPDTYPCYNLTEHQAKNLTTSPTTLCAVGNCDHGICVPNGTKELCFKAPNLEEGGGGSADDDNELFTVQYCGMNCTKDEGGTWTGCTGKKEGCKCYHESGKNYGLCLSTEYTDFSQYGNPSDSEIEAAKPKRSDTLSH
By Kd is commonly meant a measure of binding affinity in units of concentration. Higher therefore signals weaker binding. Take B1: the Kd in the experiment with CCL1_HUMAN came to 7.66 nM; with CCL17_HUMAN, 5.8 nM; with CCL21_HUMAN, 18.2 nM; with CCL4_HUMAN it was 3.54 nM; in the experiment with CCL22_HUMAN, 2.36 nM; in the experiment with CCL16_HUMAN it was 0.636 nM. The dissociation constant Kd was found to be 1.39 nM in the experiment with CCL11_HUMAN; 0.176 nM with CCL13_HUMAN; 42.6 nM in the experiment with CCL27_HUMAN [1]; 0.947 nM with CCL5_HUMAN; 0.287 nM with CCL7_HUMAN; 3.18 nM with CCL24_HUMAN. Also, the dissociation constant (Kd) in the experiment with CCL23_HUMAN turned out to be 5.13 nM; with CCL15_HUMAN it was 127 nM; with CCL8_HUMAN it was 7.89 nM. The “RT” value in the experiment with CCL1_HUMAN came out at 4.13 min; with CCL17_HUMAN it was 11.6 min; in the experiment with CCL21_HUMAN it was 17.7 min; in the experiment with CCL4_HUMAN, 28.1 min; with CCL22_HUMAN, 15.6 min; with CCL16_HUMAN it was 72.4 min. Further, the “RT” value with CCL11_HUMAN is 30.6 min; with CCL13_HUMAN it was 276 min; with CCL27_HUMAN [1] it was 2.91 min; with CCL5_HUMAN it was 92 min; in the experiment with CCL7_HUMAN it was 375 min; in the experiment with CCL24_HUMAN, 8.52 min. For the same molecule, the figures for the “RT” value in the experiment with CCL23_HUMAN, with CCL15_HUMAN and with CCL8_HUMAN were 35.2 min, 0.87 min and 16.6 min, respectively. In addition, the binding result with CCL19_HUMAN is on record as “no binding”.

B2: P1156:G4S:P991 (designed binder)
chain: ADDDNELFTVQYCGMNCTKDEGGTWTGCTGKKEGCKCYHESGKNYGLCLSTEYTDFSQYGNPSDSEIEAAKPKRSDTLSHGGGGSENGEGTTQPDYDNSTDYYNYEDFKCTCPAPHLNNTNGTVMKPIGCYYTCNVTRCTAPDTYPCYNLTEHQAKNLTTSPTTLCAVGNCDHGICVPNGTKELCFKAPNLEE
notes: also called two-warhead evasin
On to B2, for which the Kd is 16.6 nM with CCL1_HUMAN; 7.44 nM in the experiment with CCL17_HUMAN; 19.9 nM with CCL21_HUMAN; 3.55 nM with CCL4_HUMAN; 2.18 nM with CCL22_HUMAN; 0.503 nM with CCL16_HUMAN. Also, the Kd in the experiment with CCL11_HUMAN turned out to be 1.54 nM; with CCL13_HUMAN it was 0.207 nM; with CCL27_HUMAN [1], 36.2 nM; in the experiment with CCL5_HUMAN, 0.754 nM; with CCL7_HUMAN, 0.435 nM; with CCL24_HUMAN, 3.58 nM. Besides, the equilibrium dissociation constant (Kd) is 7 nM with CCL23_HUMAN, 166 nM with CCL15_HUMAN and 7.45 nM with CCL8_HUMAN. Besides, the “RT” value with CCL1_HUMAN is 2.01 min; with CCL17_HUMAN, 8.6 min; with CCL21_HUMAN it was 15.3 min; with CCL4_HUMAN it was 26.6 min; with CCL22_HUMAN, 15.8 min; with CCL16_HUMAN, 92.5 min. The “RT” value is 24.8 min with CCL11_HUMAN; 221 min in the experiment with CCL13_HUMAN; 3.4 min in the experiment with CCL27_HUMAN [1]; 103 min with CCL5_HUMAN; 231 min in the experiment with CCL7_HUMAN; 6.75 min in the experiment with CCL24_HUMAN. Also, the “RT” value in the experiment with CCL23_HUMAN turned out to be 28.5 min; with CCL15_HUMAN it was 0.66 min; with CCL8_HUMAN it was 15.3 min. In addition, the binding result in the experiment with CCL19_HUMAN was “no binding”.

B3: P1243:G4S:P1156 (designed binder)
chain: RNHTEDNSTEYYDYEEARCACPARHLNNTNGTVLKLLGCHYFCNGTLCTAPDGYPCYNLTAQQVRTLTTYPNTSCAVGVCMKGTCVKNGTMEQCFKTPGGGGSADDDNELFTVQYCGMNCTKDEGGTWTGCTGKKEGCKCYHESGKNYGLCLSTEYTDFSQYGNPSDSEIEAAKPKRSDTLSH
On to B3, for which the binding result with CCL2_HUMAN and with CCL28_HUMAN was “no binding (tested: 300 nM)” in each case. The results for the Kd with CCL14_HUMAN, with CCL3_HUMAN and in the experiment with CCL27_HUMAN [2] were 1.99 nM, 16.4 nM and 24.4 nM, respectively.
